Assay [1] has as its target RAGE 82G/82S on human mononuclear phagocytes of heterozygous subjects (human) (UniProt Q15109). Put plainly: cell-based or functional assay.
The target of assay [2] is human RAGE 82G (common allele, full-length) (human) (UniProt Q15109). Put plainly: cell-based or functional assay.
Assay [3] concerns the target human RAGE 82S (variant allele, G82S) (human) (UniProt Q15109). Nature of the assay: cell-based or functional assay.
Assay [4] deals with human RAGE 82G (common allele, full-length) (human) (UniProt Q15109). Nature of the assay: radioligand binding of 125I-EN-RAGE on stably transfected CHO cells, equilibrium analysis by Klotz and Hunston.
Assay [5] addresses human RAGE 82S (variant allele, G82S) (human) (UniProt Q15109). The assay is described as above.

B1: EN-RAGE (Extracellular Newly-Identified RAGE binding protein) (ligand, from a related filing)
chain: TKLEDHLEGIINIFHQYSVRVGHFDTLNKRELKQLITKELPKTLQNTKDQPTIDKIFQDLDADKDGAVSFEEFVVLVSRVLKTAHIDIHK
In assay [1], B1 yielded an EN-RAGE-mediated MMP-9 activity, MPs bearing RAGE 82G/82S against RAGE 82G of 1.9 fold; an IL-6 in EN-RAGE-stimulated MPs, RAGE 82G/82S compared with RAGE 82G of 2.9 fold; an IL-6 in culture supernatant (ELISA), human MPs bearing RAGE 82G/82S exposed to EN-RAGE of 160 pg/mL; an MMP-9 activity (zymography), human MPs bearing RAGE 82G/82S, EN-RAGE against baseline of 4.3 fold. In assay [1], the TNF-alpha in EN-RAGE-stimulated MPs, RAGE 82G/82S compared with RAGE 82G worked out at 1.8 fold; the TNF-alpha in culture supernatant (ELISA), human MPs bearing RAGE 82G/82S exposed to EN-RAGE worked out at 850 pg/mL; the phosphorylated MEK 1/2, human MPs, EN-RAGE against unstimulated cells was found to be 4.5 fold; the phosphorylated p44 and p42 MAP kinases, human MPs, EN-RAGE against unstimulated cells came to 4.3 fold. Moreover, in assay [2], the IL-6 in culture supernatant (ELISA), human MPs bearing RAGE 82G exposed to EN-RAGE stood at 55 pg/mL; the MMP-9 activity (zymography), human MPs bearing RAGE 82G, EN-RAGE against basal is 2.3 fold; the NF-kB nuclear binding activity by EMSA, CHO transfectants, EN-RAGE against BSA was 2.4 fold; the TNF-alpha in culture supernatant (ELISA), human MPs bearing RAGE 82G exposed to EN-RAGE amounted to 470 pg/mL. In assay [2], this molecule yielded an activation of MEK 1/2, human MPs bearing RAGE 82G, EN-RAGE against unstimulated cells of 2.6 fold; an activation of p44/p42 MAP kinases, human MPs bearing RAGE 82G, EN-RAGE against unstimulated cells of 2.3 fold; a phosphorylated MEK 1/2 by immunoblotting, CHO transfectants, EN-RAGE 10 ug/ml against BSA of 2.2 fold; a phosphorylated p44/42 MAP kinases by immunoblotting, CHO transfectants, EN-RAGE 10 ug/ml against BSA of 1.9 fold. In addition, in assay [3], the NF-kB gel shift band intensity by EMSA, CHO transfectants, EN-RAGE against BSA was 5.1 fold; the RAGE-mediated NF-kB activation, RAGE 82S compared with 82G was determined as 2.1 fold; the phosphorylated MEK 1/2 by immunoblotting, CHO transfectants, EN-RAGE 10 ug/ml against BSA amounted to 3.6 fold; the phosphorylated p44/42 MAP kinases by immunoblotting, CHO transfectants, EN-RAGE 10 ug/ml against BSA amounted to 4.1 fold. In assay [3], this molecule returned a phosphorylation of MEK 1/2, CHO cells with RAGE 82S compared with RAGE 82G of 1.6 fold and a phosphorylation of p44/p42 MAP kinases, CHO cells with RAGE 82S compared with RAGE 82G of 2.2 fold. The Kd in assay [4] turned out to be 122 nM. In assay [5], this molecule came in with a Kd of 77 nM.
